Data: patent US20220369998A1, “METHODS FOR DIAGNOSING AND TREATING NEURAL DISEASES” (B. G. NEGEV TECHNOLOGIES AND APPLICATIONS LTD., AT …, priority 2019, published 2022)
“Also recorded” adds a separate entry of the source.

Test system: young rats (10-12 weeks of age)
Assay: Long-term intra-cerebroventricular albumin perfusion in rats, telemetric ECoG recording and PSWE detection
Assay type: in vivo, rat
Description: All animal experiments were conducted following an ethical committee approval of the institution in which they were performed, Ben Gurion University of the Negev, Beer-Sheva, Israel or The University of California, Berkeley, Berkeley, Calif., US. Electrodes and wireless transmitters were implanted in the following animal groups: 1) Twelve weeks old (n=5) mice; 2) 18-22 months old (n=12) mice; 3) Nine to 11-weeks-old Wistar male rats implanted with 28 days long intra-cerebroventricular (ICV) perfusion osmotic pumps (N=8, 0.8 mM albumin infusion, N=5 ACSF infusion); 4) Sprague-Dawley rats (n=5, weighing 300 gr) 3 weeks after status epilepticus (SE, see below) and naïve rats (N=3). Groups 1 and 2 electrode coordinates: 0.5 mm rostral or 3.5 mm caudal and 1 mm lateral to bregma, on each side (4 screws, 2 in each hemisphere); Group 3 coordinates: 4.8 mm posterior or 2.7 mm anterior, and 2.2 mm lateral to bregma, on each side (4 screws, 2 in each hemisphere); Group 4 coordinates: 3 mm caudal and 2.5 mm lateral to bregma, on each side (2 screws, 1 in each hemisphere)). Continuous ECoG (sampling rate of 500 Hz) was recorded wirelessly from freely moving animals in their home cage for the described duration of experiments.
Signal processing was performed offline. Pre-processing included high pass filter (1 Hz), low pass filter (100 Hz) and notch (band-stop) filter (45-55 Hz). EEG human recordings were analyzed as reference to average. Human data were preprocessed by EEGLAB. Animal data were preprocessed using home-developed MATLAB (MathWorks Ltd., MA USA) scripts. To detect PSWE, ECoG or EEG signals were buffered into 2 sec long epochs with 1 sec overlap. Spectral analysis by Fast Fourier Transform (FFT) was applied and the median power frequency (MPF) was extracted for each epoch. PSWE was defined if MPF was <6 Hz for >5 consecutive seconds (see results). Analysis was performed separately for each recorded channel. Power spectrum as in FIG. 1A was calculated for the average channel and for animals ECoG data (e.g., FIG. 2A) over a single channel. FFT was also applied for the entire recording period buffered into 8 seconds epoch with 4 seconds overlap to analyze relative power across the frequency spectrum of 1-20 Hz. Processing was performed by self-developed MATLAB scripts.
The inventors next recorded ECoG from young rats (10-12 weeks of age) exposed to ICV albumin (N=8), compared to animals exposed to ACSF (controls, N=5).

[1] = ECoG spectral analysis, long-term albumin N=8 vs ACSF N=5

B1: albumin (protein, UniProt P02770 25-608, looked up)
Albumin: EAHKSEIAHRFKDLGEQHFKGLVLIAFSQYLQKCPYEEHIKLVQEVTDFAKTCVADENAENCDKSIHTLFGDKLCAIPKLRDNYGELADCCAKQEPERNECFLQHKDDNPNLPPFQRPEAEAMCTSFQENPTSFLGHYLHEVARRHPYFYAPELLYYAEKYNEVLTQCCTESDKAACLTPKLDAVKEKALVAAVRQRMKCSSMQRFGERAFKAWAVARMSQRFPNAEFAEITKLATDVTKINKECCHGDLLECADDRAELAKYMCENQATISSKLQACCDKPVLQKSQCLAEIEHDNIPADLPSIAADFVEDKEVCKNYAEAKDVFLGTFLYEYSRRHPDYSVSLLLRLAKKYEATLEKCCAEGDPPACYGTVLAEFQPLVEEPKNLVKTNCELYEKLGEYGFQNAVLVRYTQKAPQVSTPTLVEAARNLGRVGTKCCTLPEAQRLPCVEDYLSAILNRLCVLHEKTPVSEKVTKCCSGSLVERRPCFSALTVDETYVPKEFKAETFTFHSDICTLPDKEKQIKKQTALAELVKHKPKATEDQLKTVMGDFAQFVDKCCKAADKDNCFATEGPNLVARSKEALA
notes: serum protein infused ICV (0.8 mM, 28 days) in rats as a model of chronic BBB disruption
relative power in alpha (8-12 Hz) band compared with ACSF-injected animals [1]: significantly lower
relative power in beta (12-20 Hz) band compared with ACSF-injected animals [1]: significantly lower
relative power in the delta (1-5 Hz) band compared with ACSF-injected animals [1]: significantly greater
occurrence per minute of PSWEs, albumin-injected hemisphere compared with the non-injected hemisphere (ICV osmotic pump, right lateral ventricle, four weeks after onset of perfusion, ipsilateral vs contralateral, N=8): significantly higher; also recorded: more common
PSWE duration compared with the ACSF treated group (albumin treated group vs ACSF): significantly longer
PSWE median frequency compared with the ACSF treated group (albumin treated group vs ACSF): slower; also recorded: significantly lower
occurrence per minute of PSWEs, albumin-injected hemisphere compared with ACSF-injected controls (four weeks after onset of perfusion, albumin N=8 vs ACSF N=5): significantly higher; also recorded: more common
higher occurrence per minute of PSWEs detected at one week (one week after onset of perfusion): not at one week
